B1: Hairpin Ribozyme (parent)
chain: GUCCUCUUUCACGUGCGCGUGAAAGAGAGAAGUGAACCAGAGAAACACACGUUGUGGUAUAUUACCUGGUA

Variants of B1 are the subject of the data set. The experiment in a line: self-cleavage, relative activity (ratio to wild type); higher = more cleavage; co-transcriptional.
In the case of GUCCUCUUUCACGUGCGCGUGAAAGAGAGAACUGAACCAGAGAAAAACACGUUGUGGUAUAUUACCUGGUA [G32C C46A], the self-cleavage was 0.109.

Regarding GUCCUCUUUCACGUGCGCGUGAAAGAGAGAACUGAACCAGAGAAACACACGUUCUGGUAUAUUACCUGGUA [G32C G54C], the self-cleavage turned out to be 0.16.

Regarding GUCCUCUUUCACGUGCGCGUGAAAGAGAGAACUGAAACAGAGAAACACACGUUGUGGUAUAUUACCUGGUA [G32C C37A], the self-cleavage was 0.125.

Consider GUCCUCUUUCACGUGCGCGUGAAAGAGAGAAUUGAACCAGAGAAACACACGUUGUGGUGUAUUACCUGGUA [G32U A59G], for which the self-cleavage is 0.181.

Turning to GUCCUCUUUCACGUGCGCGUGAAAGAGAGAACUGAACCAGAGAAACACACGUUGUGGUAUAUUACCUGGGA [G32C U70G], the self-cleavage was found to be 0.0915.

Take GUCCUCUUUCACGUGCGCGUGAAAGAGAGAAUUGAUCCAGAGAAACACACGUUGUGGUAUAUUACCUGGUA [G32U A36U]: the self-cleavage was determined as 0.101.

On to GUCCUCUUUCACGUGCGCGUGAAAGAGAGAAUUGAGCCAGAGAAACACACGUUGUGGUAUAUUACCUGGUA [G32U A36G], for which the self-cleavage turned out to be 0.0896.

As for GUCCUCUUUCACGUGCGCGUGAAAGAGAGAAUUAAACCAGAGAAACACACGUUGUGGUAUAUUACCUGGUA [G32U G34A], the self-cleavage worked out at 0.133.

On to GUCCUCUUUCACGUGCGCGUGAAAGAGAGAAUUGAACCAGAGAAACACACGUUGUGGUAUAUUAGCUGGUA [G32U C65G], for which the self-cleavage was found to be 0.104.

In the case of GUCCUCUUUCACGUGCGCGUGAAAGAGAGAAUUGAACCAGAGAAACACACGUUGUGGUAUAUUAACUGGUA [G32U C65A], the self-cleavage amounted to 0.064.

Take GUCCUCUUUCACGUGCGCGUGAAAGAGAGAAUUGAACCAGAGAAACACACGUUGUGGUAUAUUAUCUGGUA [G32U C65U]: the self-cleavage is 0.115.

For GUCCUCUUUCACGUGCGCGUGAAAGAGAGAACUGAACCAGAGAAACACUCGUUGUGGUAUAUUACCUGGUA [G32C A49U], the self-cleavage is 0.0382.

Consider GUCCUCUUUCACGUGCGCGUGAAAGAGAGAACUGAACCAGAGAAACACGCGUUGUGGUAUAUUACCUGGUA [G32C A49G], for which the self-cleavage stood at 0.189.

Take GUCCUCUUUCACGUGCGCGUGAAAGAGAGAACUGAACCAGAGAAACACACUUUGUGGUAUAUUACCUGGUA [G32C G51U]: the self-cleavage came out at 0.154.

As to GUCCUCUUUCACGUGCGCGUGAAAGAGAGAAAUGAACCAGAGAAACACACGUUGUGGUAUAUUACCUGGGA [G32A U70G], the self-cleavage came to 0.165.

On to GUCCUCUUUCACGUGCGCGUGAAAGAGAGAACUGAACCAGAGAAACACACGUUGUGGUAUAUUACUUGGUA [G32C C66U], for which the self-cleavage is 0.04.

GUCCUCUUUCACGUGCGCGUGAAAGAGAGAAUUGAACCAGAGAAACCCACGUUGUGGUAUAUUACCUGGUA [G32U A47C]: the self-cleavage was found to be 0.167.

Take GUCCUCUUUCACGUGCGCGUGAAAGAGAGAAUUGAACCAGAGAAACACACGUUGUGGUAUAUUACCUGGUA [G32U]: the self-cleavage stood at 0.13.

Turning to GUCCUCUUUCACGUGCGCGUGAAAGAGAGAACUGAACCAGAGAAACACACGUUGUGGUAUAUUACCUGGUA [G32C], the self-cleavage stood at 0.127.

For GUCCUCUUUCACGUGCGCGUGAAAGAGAGAAAUGAACCAGAGAAACACACGUUGUGGUAUAUUACCCGGUA [G32A U67C], the self-cleavage amounted to 0.131.

As for GUCCUCUUUCACGUGCGCGUGAAAGAGAGAAAUGAACCAGAGAAACACACGUUGUGGUAUAUUACCAGGUA [G32A U67A], the self-cleavage stood at 0.114.

Take GUCCUCUUUCACGUGCGCGUGAAAGAGAGAAUUGAACCAGAGAAACACACGUUGCGGUAUAUUACCUGGUA [G32U U55C]: the self-cleavage stood at 0.165.

Turning to GUCCUCUUUCACGUGCGCGUGAAAGAGAGAAUUGAACCAGAGAAACACACGUUGGGGUAUAUUACCUGGUA [G32U U55G], the self-cleavage amounted to 0.132.

GUCCUCUUUCACGUGCGCGUGAAAGAGAGAACUGAACCAGAGAAACACACGUUGUUGUAUAUUACCUGGUA [G32C G56U]: the self-cleavage worked out at 0.156.

As for GUCCUCUUUCACGUGCGCGUGAAAGAGAGAAUUGAACCAGAGAAACACACGUUGUGGUAUAAUACCUGGUA [G32U U62A], the self-cleavage came to 0.052.

In the case of GUCCUCUUUCACGUGCGCGUGAAAGAGAGAAUUGAACCAGAGAAACACACCUUGUGGUAUAUUACCUGGUA [G32U G51C], the self-cleavage was found to be 0.148.

In the case of GUCCUCUUUCACGUGCGCGUGAAAGAGAGAAUUGAACCAGAGAAACACACGUUGUGGUAUAUUACCUUGUA [G32U G68U], the self-cleavage was 0.114.

For GUCCUCUUUCACGUGCGCGUGAAAGAGAGAAUUGAACCAGAGAAACACACGUUGUGGUAUAUUACCUAGUA [G32U G68A], the self-cleavage stood at 0.0877.

As for GUCCUCUUUCACGUGCGCGUGAAAGAGAGAACUGAACCAGAUAAACACACGUUGUGGUAUAUUACCUGGUA [G32C G42U], the self-cleavage came to 0.213.

For GUCCUCUUUCACGUGCGCGUGAAAGAGAGAACUGAACCAGAAAAACACACGUUGUGGUAUAUUACCUGGUA [G32C G42A], the self-cleavage came out at 0.156.

With GUCCUCUUUCACGUGCGCGUGAAAGAGAGAACUGAACCAGACAAACACACGUUGUGGUAUAUUACCUGGUA [G32C G42C], the self-cleavage stood at 0.137.

For the variant GUCCUCUUUCACGUGCGCGUGAAAGAGAGAAUUGAACCAGAGAAACACACGGUGUGGUAUAUUACCUGGUA [G32U U52G], the self-cleavage worked out at 0.0995.

On to GUCCUCUUUCACGUGCGCGUGAAAGAGAGAAUUGAACCAGAGAAACACACGAUGUGGUAUAUUACCUGGUA [G32U U52A], for which the self-cleavage stood at 0.155.

For GUCCUCUUUCACGUGCGCGUGAAAGAGAGAAUUGAACCAGAGAAACACACGUUCUGGUAUAUUACCUGGUA [G32U G54C], the self-cleavage came out at 0.1.

With GUCCUCUUUCACGUGCGCGUGAAAGAGAGAACUGAACCAGAGAAACACACGUUGUGGUAUAUUACCUGUUA [G32C G69U], the self-cleavage worked out at 0.203.

Take GUCCUCUUUCACGUGCGCGUGAAAGAGAGAAUUGAACCAGAGAAACACAUGUUGUGGUAUAUUACCUGGUA [G32U C50U]: the self-cleavage worked out at 0.119.

For GUCCUCUUUCACGUGCGCGUGAAAGAGAGAAUUGAACCAGAGAAACACAGGUUGUGGUAUAUUACCUGGUA [G32U C50G], the self-cleavage was 0.162.

Turning to GUCCUCUUUCACGUGCGCGUGAAAGAGAGAAUUGCACCAGAGAAACACACGUUGUGGUAUAUUACCUGGUA [G32U A35C], the self-cleavage came out at 0.107.

(Values after the RNAGym collection of RNA variant scans (doi:10.7554/elife.80360).)
